From patent US20240360242A1 (KISOJI BIOTECHNOLOGY, published 2024)
Substitutions are numbered along the chain they refer to.

T1: recombinant human TROP2 extracellular domain (aa 1-274) comprising His tag (human, UniProt P09758 27-274)
T1 construct: Used here for all assays on recombinant human TROP2 (ELISA, immunoblot, SPR, crystal), although only some of them name the catalogue number; also called human recombinant TROP2; recombinant human TROP2 protein; not shown: His tag
T1 sequence: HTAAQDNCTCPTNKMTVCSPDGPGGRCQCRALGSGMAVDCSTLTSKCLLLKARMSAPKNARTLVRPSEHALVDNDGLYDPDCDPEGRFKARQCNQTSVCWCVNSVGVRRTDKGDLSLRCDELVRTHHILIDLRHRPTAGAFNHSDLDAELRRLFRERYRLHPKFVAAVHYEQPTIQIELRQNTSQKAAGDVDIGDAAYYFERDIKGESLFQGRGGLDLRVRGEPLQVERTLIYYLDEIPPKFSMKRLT

T2: recombinant cynomolgus/Rhesus TROP2 full-length extracellular domain (cynomolgus/Rhesus, UniProt P09758 27-274 (human entry))
T2 construct: also called cynomolgus TROP2
T2 chain: T1 sequence with M36V, S67N, I204V

T3: HEK-TROP2 Δ27-85 (human, UniProt P09758)
T3 construct: deletion of residues 27-85, transiently expressed on HEK cells
T3 sequence (membrane protein on transfected HEK cells, looked up): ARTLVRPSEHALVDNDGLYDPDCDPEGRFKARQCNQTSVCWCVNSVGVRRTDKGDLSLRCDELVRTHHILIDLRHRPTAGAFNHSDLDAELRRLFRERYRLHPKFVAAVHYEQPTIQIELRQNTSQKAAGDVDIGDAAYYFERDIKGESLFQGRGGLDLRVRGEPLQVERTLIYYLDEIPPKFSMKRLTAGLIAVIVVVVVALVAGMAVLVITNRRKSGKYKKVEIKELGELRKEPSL

T4: HEK-TROP2 Δ27-146 (human, UniProt P09758)
T4 construct: deletion of residues 27-146, transiently expressed on HEK cells
T4 sequence (membrane protein on transfected HEK cells, looked up): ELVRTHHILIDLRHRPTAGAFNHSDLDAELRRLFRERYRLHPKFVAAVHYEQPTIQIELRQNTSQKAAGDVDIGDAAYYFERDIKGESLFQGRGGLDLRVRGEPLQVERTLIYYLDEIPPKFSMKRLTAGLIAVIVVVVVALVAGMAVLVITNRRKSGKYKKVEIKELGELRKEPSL

T5: HEK-TROP2 Δ27-126 (human, UniProt P09758)
T5 construct: deletion of residues 27-126, transiently expressed on HEK cells
T5 sequence (membrane protein on transfected HEK cells, looked up): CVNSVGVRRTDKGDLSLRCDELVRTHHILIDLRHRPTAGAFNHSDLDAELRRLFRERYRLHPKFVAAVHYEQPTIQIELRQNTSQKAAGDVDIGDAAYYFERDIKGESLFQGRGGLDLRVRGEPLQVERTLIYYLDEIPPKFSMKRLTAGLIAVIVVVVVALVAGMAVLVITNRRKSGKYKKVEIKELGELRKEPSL

T6: HEK-TROP2 Δ27-66 (human, UniProt P09758)
T6 construct: deletion of residues 27-66, transiently expressed on HEK cells
T6 sequence (membrane protein on transfected HEK cells, looked up): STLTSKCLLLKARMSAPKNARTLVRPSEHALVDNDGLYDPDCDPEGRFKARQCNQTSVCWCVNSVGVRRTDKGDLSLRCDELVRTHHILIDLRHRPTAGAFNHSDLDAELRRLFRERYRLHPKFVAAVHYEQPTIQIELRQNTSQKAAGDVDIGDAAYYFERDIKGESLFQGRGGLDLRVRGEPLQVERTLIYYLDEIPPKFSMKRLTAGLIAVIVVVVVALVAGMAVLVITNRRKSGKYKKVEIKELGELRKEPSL

B1: KD001 (antibody, human IgG1, V domains shown)
VH: QVQLQESGGGMVHPGGSLRLSCAASGFTFSGSDMSWVRQAPGKGPEWVSYITSGGTTYYPDSVKGRFTISRDNAKNTLYLQMNSLTPDDTALYRCAKARLTDSHYVEDAWGQGTQVTVSS
notes: also called anti-TROP2 sdAb KD001
B2: KD004 (antibody, human IgG1, V domains shown)
VH: B1 VH with M11L, H13Q, G16R, S53G, G54S, I69T, T77M, T86K
notes: also called anti-TROP2 sdAb KD004
B3: KD005 (antibody, human IgG1, V domains shown)
VH: B1 VH with M11L, H13E, P14A, T86K, A98S
notes: also called anti-TROP2 sdAb KD005
B4: KD002 (antibody, human IgG1, V domains shown)
VH: QVQLQESGGGMVQVGGSLRLSCAASGFPFSSADMSWVRQAPGKGPEWVSYINADGSKTYYPDSVKGRFTISRDNAKNTLYLLMNNLKPEDTALYRCARAKLTDTHYVEDYWGQGTQVTVSS
notes: also called anti-TROP2 sdAb KD002
B5: KD003 (antibody, human IgG1, V domains shown)
VH: B4 VH with V14P, P28T, S31N, A32Y, D54G, K57N, Y59D, T78M
notes: also called anti-TROP2 sdAb KD003
B6: KD007 (antibody, human IgG1, V domains shown)
VH: QVQLQESGGGLVQPGGSLRLSCAASGFAFSFYAMAWYRQAPGKQRDMVATITAYGNTNYADSVKGRFTTSRDNAKNTVYLQMNSLKPEDTAVYVCNANLPSASHNYWGQGTQVTVSS
notes: also called anti-TROP2 sdAb KD007

The binders below were run against T1, recombinant human TROP2 extracellular … (assay: ELISA on coated recombinant TROP2 ECD, 1:5 dilutions from 1000 nM, RLU).
Description: (§1) TROP2 full-length extracellular domain recombinant proteins including cynomolgus/Rhesus (FIG. 12A), human (FIG. 12B), mouse (FIG. 12C), and rat (FIG. 12D) were coated on 96-well ELISA plates at the concentration of 1 μg/mL. Plates were covered with adhesive plate cover and stored at 4° C. overnight. The next day, plates were washed 3× with washing buffer (PBS with 0.1% Tween™ 20). Plates were blocked with 2% fat-free BSA in washing buffer for 1 hour at 37° C. During the incubation time, the anti-TROP2 sdAbs were diluted in the blocking buffer to the indicated concentrations. In brief, the anti-TROP2 sdAbs starting concentration was 1000 nM and serial diluted 1 in 5 to 0.02048 pM. After blocking, the blocking buffer was removed from the wells and 100 μL of anti-TROP2 sdAbs dilutions were transferred to the corresponding wells. Plates were covered with adhesive plates cover and incubated at 37° C. for 1 hour. During the primary antibody incubation, the secondary antibody (goat anti-human IgG, HRP conjugated) was diluted 1 in 5000 with the blocking buffer. Plates were washed 3× with blocking buffer, followed by secondary antibody incubation for another 1 hour at 37° C. After the secondary antibody incubation, plates were washed 3× with washing buffer and added with 100 μL of ELISA chemiluminescent substrate (Thermofisher). The luminescence signal was detected by SpectraMax i3x at […].

Binder | EC50 (read off the curve) [nM]
B1 | ~0.2
B2 | ~0.2
B3 | ~0.2
B4 | ~0.2
B5 | ~0.2

Target: T2, recombinant cynomolgus/Rhesus TROP2 …
Test: as above
Description: as §1

Binder | EC50 (read off the curve) [nM]
B1 | ~0.2
B2 | ~0.2
B3 | ~0.2
B4 | ~0.2
B5 | ~0.2

These binders were tested against T3, HEK-TROP2 Δ27-85 (assay: flow cytometry, 100 nM antibody, transiently transfected HEK cells, APC anti-human Fc).
Description: (§2) To determine the effect of TROP2 truncations on the binding ability of anti-TROP2 sdAbs, the HEK parental cells were transiently transfected with human TROP2 mutants by lipofectamine. 24 hours after transfection, cells were collected and stained with anti-TROP2 antibodies (FIG. 13A and FIG. 13B). In brief, 1×10⁵ cells were incubated with an Fc receptor blocking antibody (1/100 dilution) for 10 minutes at room temperature. Anti-TROP2 antibodies were diluted in FACS staining buffer to 100 nM and added and incubated with cells for 30 minutes on ice. After washing three times with FACS staining buffer, APC-conjugated secondary antibodies recognizing the human Fc region (Biolegend, Cat #410712) were mixed with cells. After staining for 30 minutes, cells were washed three times, followed by resuspension into 100 μL of 7-Amino-Actinomycin D (7-AAD) solution (BD Biosciences, Cat #559925).

Binder | binding result
B1 | no binding (tested: 100 nM)
B2 | no binding (tested: 100 nM)
B3 | no binding (tested: 100 nM)
B4 | no binding (tested: 100 nM)
B5 | no binding (tested: 100 nM)
B6 | no binding (tested: 100 nM)

What follows are binders tested against T4, HEK-TROP2 Δ27-146 in the same assay as above.
Description: as §2

Binder | binding result
B1 | no binding (tested: 100 nM)
B2 | no binding (tested: 100 nM)
B3 | no binding (tested: 100 nM)
B4 | no binding (tested: 100 nM)
B5 | no binding (tested: 100 nM)

Each binder was assayed against T5, HEK-TROP2 Δ27-126 in the same assay as above.
Description: as §2

Binder | binding result
B1 | no binding (tested: 100 nM)
B2 | no binding (tested: 100 nM)
B3 | no binding (tested: 100 nM)
B4 | no binding (tested: 100 nM)
B5 | no binding (tested: 100 nM)
B6 | no binding (tested: 100 nM)

Each binder was assayed against T6, HEK-TROP2 Δ27-66 in the same assay as above.
Description: as §2

Binder | binding result
B1 | no binding (tested: 100 nM)
B2 | no binding (tested: 100 nM)
B3 | no binding (tested: 100 nM)
B4 | no binding (tested: 100 nM)
B5 | no binding (tested: 100 nM)
